Data on ten molecules can be found in patent US20160002331A1 (Pfizer, published 2016).

First the molecules themselves.
T1: human Notch1 NRR_Avi_His recombinant protein (human, UniProt P46531 1434-1737)
T1 construct: Secreted from CHO-PACE cells; cleaved at S1 into an N-terminal ~26 kDa half (LNR-A, B, C, HD1) and a C-terminal ~12 kDa half (HD2 and tag) that stay associated non-covalently; written here as one chain; also called recombinant human Notch1 NRR; human Notch1 NRR immunogen
T1 sequence: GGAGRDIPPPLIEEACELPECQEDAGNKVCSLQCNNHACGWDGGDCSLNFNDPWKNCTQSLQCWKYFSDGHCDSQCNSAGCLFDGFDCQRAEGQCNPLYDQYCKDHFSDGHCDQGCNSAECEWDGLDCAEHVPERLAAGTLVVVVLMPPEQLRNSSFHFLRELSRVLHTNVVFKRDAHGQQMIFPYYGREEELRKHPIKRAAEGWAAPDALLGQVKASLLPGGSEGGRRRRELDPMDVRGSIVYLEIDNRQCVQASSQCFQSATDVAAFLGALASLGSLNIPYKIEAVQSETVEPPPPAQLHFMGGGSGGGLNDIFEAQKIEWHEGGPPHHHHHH

B1: humanized 438 VH1.1/VL1.1 (antibody, human IgG1, V domains shown)
VH: EVQLVESGGGLVQPGGSLRLSCAASGFTFSSFAMAWVRQAPGKGLEWVASISYGGADTYYRDSVKGRFTISRDNAKNSLYLQMNSLRAEDTAVYYCAKDLPYYGYTPFVMDAWGQGTLVTVSS
VL: DIQLTQSPSSLSASVGDRVTITCRASQRINTDLHWYQQKPGKAPKVLIKFASQTISGVPSRFSGSGSGTDFTLTISSLQPEDFATYYCQQSNSWPYTFGQGTKLEIK
B2: humanized 438 VH1.1/VL1.5 (antibody, human IgG1, V domains shown)
VH: B1 VH
VL: B1 VL with L4M, V46L
B3: humanized 438 VH1.1/VL1.0 (antibody, human IgG1, V domains shown)
VH: B1 VH
VL: B1 VL with L4M, V46L, K49Y
B4: humanized 438 VH1.0/VL1.1 (antibody, human IgG1, V domains shown)
VH: B1 VH with K98R
VL: B1 VL
B5: humanized 438 VH1.1/VL1.3 (antibody, human IgG1, V domains shown)
VH: B1 VH
VL: B1 VL with V46L, K49Y
B6: humanized 438 VH1.1/VL1.9 (antibody, human IgG1, V domains shown)
VH: B1 VH
VL: B1 VL with Q3M
B7: humanized 438 VH1.0/VL1.8 (antibody, human IgG1, V domains shown)
VH: B1 VH with K98R
VL: B1 VL with L4M
B8: rat 438-hIgG1 (antibody, V domains shown)
VH: AVQLVESGGGLVQPGRSLKLSCTASGFTFSSFAMAWVRQAPTKGLEWVASISYGGADTYYRDSVKGRFTISRDNAKSSLYLQMDSLRSEDTSTYYCAKDLPYYGYTPFVMDAWGQGTSVTVSS
VL: DIMLTQSPPTLSVTPGETISLSCRASQRINTDLHWYQQKPNESPRVLIKFASQTISGVPSRFSGSGSGTDFTLNINRVEPEDFSVYYCQQSNSWPYTFGAGTKLELK
notes: also called r438-hIgG
B9: rat 351(R58Y/V60R)-mIgG1 (antibody, V domains shown)
VH: EVQLVESGGGLVQPGRSLKVSCLASGFTFSHYGMNWIRQAPGKGLDWVASISRSGSYIYYRDTVKGRFTVSRDIAKNTLYLQMTSLRSEDTALYYCAREGQFGDYFEYWGQGVMVTVSS
VL: DIMLTQSPATLSVTPGERISLSCRASQKISTNLHWYQQKPNESPRILIKYASQTISGIPSRFSGSGSGTDFTLHINTVEPEDFSVYYCQQTNSWPLTFGSGTKLEIK
B10: parental rat 438 (antibody, V domains shown)
VH: B8 VH
VL: B8 VL
notes: Rat monoclonal IgG from a hybridoma

Changes are numbered by the printed parent chain. Numbers in names are those of the source. Where “and” joins values, the source holds several entries; their conditions need not be identical. Identical values can stand only once.

T3 sequence (Q01705 19-2531): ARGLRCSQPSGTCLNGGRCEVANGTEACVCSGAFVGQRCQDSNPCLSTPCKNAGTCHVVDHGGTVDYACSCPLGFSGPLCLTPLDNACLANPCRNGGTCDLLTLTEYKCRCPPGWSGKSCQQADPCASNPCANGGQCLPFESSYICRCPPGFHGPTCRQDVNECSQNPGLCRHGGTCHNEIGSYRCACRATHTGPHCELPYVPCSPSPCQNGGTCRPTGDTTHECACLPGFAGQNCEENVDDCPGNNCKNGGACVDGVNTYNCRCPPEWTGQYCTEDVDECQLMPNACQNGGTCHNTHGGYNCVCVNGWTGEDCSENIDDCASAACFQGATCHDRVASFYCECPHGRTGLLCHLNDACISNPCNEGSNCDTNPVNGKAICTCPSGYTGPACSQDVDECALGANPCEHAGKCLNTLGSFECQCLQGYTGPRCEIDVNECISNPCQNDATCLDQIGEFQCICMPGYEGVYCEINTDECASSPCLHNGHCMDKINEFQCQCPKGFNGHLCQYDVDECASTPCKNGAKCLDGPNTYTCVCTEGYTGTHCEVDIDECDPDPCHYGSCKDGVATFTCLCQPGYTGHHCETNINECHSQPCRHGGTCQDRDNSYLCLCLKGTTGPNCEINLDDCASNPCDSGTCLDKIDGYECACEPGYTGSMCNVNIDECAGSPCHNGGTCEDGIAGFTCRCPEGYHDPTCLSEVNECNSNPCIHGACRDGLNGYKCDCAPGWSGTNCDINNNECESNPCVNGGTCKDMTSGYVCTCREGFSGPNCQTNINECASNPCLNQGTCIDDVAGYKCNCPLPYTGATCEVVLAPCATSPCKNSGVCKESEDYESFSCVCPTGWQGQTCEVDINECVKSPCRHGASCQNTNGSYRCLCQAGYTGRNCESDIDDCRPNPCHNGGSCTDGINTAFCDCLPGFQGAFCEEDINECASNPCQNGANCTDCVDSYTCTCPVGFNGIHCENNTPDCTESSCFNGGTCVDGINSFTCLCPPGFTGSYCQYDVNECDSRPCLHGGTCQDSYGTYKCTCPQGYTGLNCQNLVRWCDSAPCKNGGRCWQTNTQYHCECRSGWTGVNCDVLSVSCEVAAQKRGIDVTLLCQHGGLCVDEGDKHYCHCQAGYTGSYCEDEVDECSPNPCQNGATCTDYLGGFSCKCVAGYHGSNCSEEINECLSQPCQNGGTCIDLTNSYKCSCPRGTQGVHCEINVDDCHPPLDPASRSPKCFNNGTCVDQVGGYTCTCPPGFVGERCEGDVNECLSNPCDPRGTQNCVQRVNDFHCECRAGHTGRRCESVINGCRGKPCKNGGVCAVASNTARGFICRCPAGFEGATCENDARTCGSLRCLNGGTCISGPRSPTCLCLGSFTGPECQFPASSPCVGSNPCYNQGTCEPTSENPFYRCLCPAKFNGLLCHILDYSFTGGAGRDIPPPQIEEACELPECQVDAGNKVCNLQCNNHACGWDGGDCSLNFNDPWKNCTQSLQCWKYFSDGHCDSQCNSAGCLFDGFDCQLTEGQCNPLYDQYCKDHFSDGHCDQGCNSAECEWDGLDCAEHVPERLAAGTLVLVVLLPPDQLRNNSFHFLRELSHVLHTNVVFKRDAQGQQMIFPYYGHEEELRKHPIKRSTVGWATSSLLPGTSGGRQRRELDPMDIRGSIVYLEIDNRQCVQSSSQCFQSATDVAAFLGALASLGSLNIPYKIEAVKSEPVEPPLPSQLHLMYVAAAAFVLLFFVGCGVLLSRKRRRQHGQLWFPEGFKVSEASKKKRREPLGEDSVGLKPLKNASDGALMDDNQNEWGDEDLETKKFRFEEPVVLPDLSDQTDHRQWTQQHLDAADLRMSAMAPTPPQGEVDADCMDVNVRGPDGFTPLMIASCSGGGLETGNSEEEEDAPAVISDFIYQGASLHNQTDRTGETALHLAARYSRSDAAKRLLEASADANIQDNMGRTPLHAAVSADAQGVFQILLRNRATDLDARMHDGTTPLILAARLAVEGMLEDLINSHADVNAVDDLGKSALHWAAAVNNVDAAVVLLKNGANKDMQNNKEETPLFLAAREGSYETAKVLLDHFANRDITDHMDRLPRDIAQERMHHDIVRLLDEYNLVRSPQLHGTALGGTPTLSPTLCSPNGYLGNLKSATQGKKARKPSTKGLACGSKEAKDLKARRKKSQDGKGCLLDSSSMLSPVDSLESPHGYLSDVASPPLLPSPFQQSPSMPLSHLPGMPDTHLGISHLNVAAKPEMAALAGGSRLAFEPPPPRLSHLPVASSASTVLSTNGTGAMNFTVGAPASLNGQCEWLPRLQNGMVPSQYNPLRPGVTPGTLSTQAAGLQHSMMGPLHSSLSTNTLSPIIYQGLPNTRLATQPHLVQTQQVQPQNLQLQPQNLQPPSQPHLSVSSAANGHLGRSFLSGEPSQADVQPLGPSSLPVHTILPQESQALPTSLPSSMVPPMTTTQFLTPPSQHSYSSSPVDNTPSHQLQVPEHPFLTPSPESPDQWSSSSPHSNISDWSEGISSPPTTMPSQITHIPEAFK

The first experiment deals with T2, full-length human Notch1 expressed on the cell surface (human, UniProt P46531 19-2555). Description: cell-based or functional assay.
T2 sequence (P46531 19-2555): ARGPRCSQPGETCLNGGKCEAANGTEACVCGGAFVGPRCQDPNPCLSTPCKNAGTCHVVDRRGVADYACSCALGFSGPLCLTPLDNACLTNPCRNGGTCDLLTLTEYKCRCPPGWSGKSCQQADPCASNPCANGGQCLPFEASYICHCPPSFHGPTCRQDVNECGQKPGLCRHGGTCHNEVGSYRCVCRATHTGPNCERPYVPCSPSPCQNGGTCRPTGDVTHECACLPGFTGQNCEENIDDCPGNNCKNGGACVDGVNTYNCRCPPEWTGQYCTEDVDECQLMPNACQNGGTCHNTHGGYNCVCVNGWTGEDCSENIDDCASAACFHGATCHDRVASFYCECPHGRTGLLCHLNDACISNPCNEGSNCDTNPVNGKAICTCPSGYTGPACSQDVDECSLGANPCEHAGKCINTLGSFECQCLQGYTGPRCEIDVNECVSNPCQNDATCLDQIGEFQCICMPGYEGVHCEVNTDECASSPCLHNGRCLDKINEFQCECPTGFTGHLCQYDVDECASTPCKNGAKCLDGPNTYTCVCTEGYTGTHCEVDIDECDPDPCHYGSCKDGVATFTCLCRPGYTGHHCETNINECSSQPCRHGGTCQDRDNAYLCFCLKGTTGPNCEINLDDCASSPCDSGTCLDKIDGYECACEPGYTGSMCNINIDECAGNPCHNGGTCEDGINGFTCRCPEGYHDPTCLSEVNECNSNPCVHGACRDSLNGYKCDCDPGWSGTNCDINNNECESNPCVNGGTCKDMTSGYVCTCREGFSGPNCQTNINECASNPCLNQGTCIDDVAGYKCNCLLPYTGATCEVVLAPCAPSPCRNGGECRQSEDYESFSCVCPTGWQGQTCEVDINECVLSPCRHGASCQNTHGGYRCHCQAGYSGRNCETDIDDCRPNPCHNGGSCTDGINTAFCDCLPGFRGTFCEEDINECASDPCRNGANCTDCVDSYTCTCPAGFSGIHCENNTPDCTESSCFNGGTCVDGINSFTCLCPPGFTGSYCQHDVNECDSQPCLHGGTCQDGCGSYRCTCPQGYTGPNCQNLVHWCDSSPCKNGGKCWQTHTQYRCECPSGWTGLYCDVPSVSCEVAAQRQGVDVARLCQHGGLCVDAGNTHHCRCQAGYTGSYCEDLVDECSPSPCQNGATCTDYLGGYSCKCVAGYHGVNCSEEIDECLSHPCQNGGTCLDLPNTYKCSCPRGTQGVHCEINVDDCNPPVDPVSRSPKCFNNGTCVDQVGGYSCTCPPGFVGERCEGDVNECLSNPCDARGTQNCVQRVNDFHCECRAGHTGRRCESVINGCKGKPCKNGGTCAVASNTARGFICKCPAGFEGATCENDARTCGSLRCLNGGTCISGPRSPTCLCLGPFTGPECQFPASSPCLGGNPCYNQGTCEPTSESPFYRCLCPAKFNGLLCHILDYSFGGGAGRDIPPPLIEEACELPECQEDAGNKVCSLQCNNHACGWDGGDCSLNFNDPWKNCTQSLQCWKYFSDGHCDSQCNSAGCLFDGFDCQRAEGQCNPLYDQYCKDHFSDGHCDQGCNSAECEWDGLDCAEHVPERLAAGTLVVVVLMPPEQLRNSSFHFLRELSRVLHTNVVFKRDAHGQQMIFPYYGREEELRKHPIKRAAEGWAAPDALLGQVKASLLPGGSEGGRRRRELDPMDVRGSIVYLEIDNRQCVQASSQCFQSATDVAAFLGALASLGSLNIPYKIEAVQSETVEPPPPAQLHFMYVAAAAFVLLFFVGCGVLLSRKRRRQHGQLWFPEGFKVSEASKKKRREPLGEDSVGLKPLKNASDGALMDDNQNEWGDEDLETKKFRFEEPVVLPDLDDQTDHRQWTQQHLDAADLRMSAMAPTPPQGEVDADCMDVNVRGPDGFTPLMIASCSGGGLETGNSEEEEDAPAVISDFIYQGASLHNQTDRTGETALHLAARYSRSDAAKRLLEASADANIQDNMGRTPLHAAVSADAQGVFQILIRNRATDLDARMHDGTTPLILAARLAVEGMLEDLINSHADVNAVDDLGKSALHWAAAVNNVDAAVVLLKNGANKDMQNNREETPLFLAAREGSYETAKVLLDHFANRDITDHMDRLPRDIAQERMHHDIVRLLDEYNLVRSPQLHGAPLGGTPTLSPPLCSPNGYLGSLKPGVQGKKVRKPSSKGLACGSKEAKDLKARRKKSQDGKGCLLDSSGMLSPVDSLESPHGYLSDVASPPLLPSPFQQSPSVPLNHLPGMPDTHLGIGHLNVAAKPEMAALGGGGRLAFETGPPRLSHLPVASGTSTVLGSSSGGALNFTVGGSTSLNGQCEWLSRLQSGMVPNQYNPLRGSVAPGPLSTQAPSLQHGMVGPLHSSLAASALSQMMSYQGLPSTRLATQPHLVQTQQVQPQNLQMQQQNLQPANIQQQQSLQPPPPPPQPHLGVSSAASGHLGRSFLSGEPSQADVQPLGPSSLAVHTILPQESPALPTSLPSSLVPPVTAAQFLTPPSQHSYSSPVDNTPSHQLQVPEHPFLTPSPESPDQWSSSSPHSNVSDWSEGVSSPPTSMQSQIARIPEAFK
Regarding B1, the “IC50, human Notch1 reporter gene co-culture assay (DLL4-HEK293)” value worked out at 0.657 nM.

As to B2, the “IC50, human Notch1 reporter gene co-culture assay (DLL4-HEK293)” value is 0.35 nM.

Regarding B3, the “IC50, human Notch1 reporter gene co-culture assay (DLL4-HEK293)” value was determined as 0.46 nM.

As for B4, the “IC50, human Notch1 reporter gene co-culture assay (DLL4-HEK293)” value worked out at 1.19 nM.

For the molecule B5, the “IC50, human Notch1 reporter gene co-culture assay (DLL4-HEK293)” value worked out at 0.45 nM.

Take B6: the “IC50, human Notch1 reporter gene co-culture assay (DLL4-HEK293)” value is 0.38 nM.

On to B7, for which the “IC50, human Notch1 reporter gene co-culture assay (DLL4-HEK293)” value came out at 1.87 nM.

With B8, the “IC50, human Notch1 reporter gene co-culture assay (DLL4-HEK293)” value came to 0.65 nM.

Another experiment concerns the target T3, full-length mouse Notch1 expressed on the cell surface of U-2 OS cells (mouse, UniProt Q01705 19-2531). Description: cell-based or functional assay.
Regarding B2, the “IC50, mouse Notch1 reporter gene co-culture assay (DLL4-HEK293)” value came to 0.5 nM.

B5: the “IC50, mouse Notch1 reporter gene co-culture assay (DLL4-HEK293)” value amounted to 0.62 nM.

Regarding B7, the “IC50, mouse Notch1 reporter gene co-culture assay (DLL4-HEK293)” value is 1.37 nM.

Another experiment has as its target T2, full-length human Notch1 expressed on …. Description: cell-based or functional assay. This is another data set of the same source.
Turning to B9, the “IC50, Notch1 signaling inhibition co-culture reporter assay” value stood at 0.11 nM and the “Maximal Inhibition (%), Notch1 signaling inhibition co-culture reporter assay” value was 95.3%.

Another experiment has as its target T1, human Notch1 NRR_Avi_His recombinant …. Description: SPR (Biacore T100), ratio of KD to that of rat 438-hIgG1. The protocol: (§1) The kinetic constants of the anti-Notch1 NRR interactions were determined by surface plasmon resonance (Biacore® T100, Biacore Inc., Piscataway, N.J.). Flow cells of a CM5 chip were immobilized with approximately 10,000 Resonance Unit (RU) of anti-human IgG-Fc (Biacore®) in 10 mM Glycine, pH 5.0 at 10 μl/min for 600 seconds. […] Association of four concentrations of human Notch1 NRR_Avi_His recombinant protein (from 3.7-100 nM) and a zero concentration (running buffer) at 100 μl/min were recorded for 3 minutes in TBS with 1 mM CaCl₂. Dissociation of the complexes was measured for 10 minutes. The surface of the chip was regenerated by injecting 3M MgCl₂ with 3 mM EGTA for 60 seconds at 10 μl/min. Curves obtained after subtraction of the reference and buffer signals were fitted to a 1:1 Langmuir binding model with Biacore® T100 Evaluation Software (Biacore®).
On the technique in general: In SPR one partner is held on a chip, and binding of the other changes the refractive index at the surface.
As for B1, the “Fold difference from rat 438” value was 2.21 fold.

With B3, the “Fold difference from rat 438” value worked out at 5.02 fold.

With B4, the “Fold difference from rat 438” value was found to be 1.47 fold.

Turning to B5, the “Fold difference from rat 438” value is 0.42 fold.

Regarding B8, the “Fold difference from rat 438” value turned out to be 1 fold.

The target of the next experiment is T2, full-length human Notch1 expressed on …. Description: cell-based ELISA, U-2 OS cells expressing full-length human Notch1. The protocol:
(§2) Supernatants from clones displaying positive binding to immunogens in recombinant Notch1 NRR based ELISAs described above were then screened for cell surface Notch1 binding in a cell-based ELISA. U-2 OS cells stably overexpressing human or mouse full length Notch1 protein on cell surface were plated at 50,000 cells/well in 96 well plates (white opaque, BD/VWR) the day before ELISA assay. On the day of the ELISA, culture media were removed from wells and serially diluted (1:3 in blocking buffer) antibody solutions or hybridoma culture supernatants were applied to the plate. Plates were incubated at room temperature for 2 hours before being washed with PBS-Mg/Ca. HRP-conjugated secondary antibody was then applied and incubated with cells for 1 hour as described above for recombinant protein ELISA. Plates were washed with PBS-Mg/Ca before being developed with Pico-Chemiluminescent developing kit (Thermal Scientific), and chemiluminescence measurements were performed per manufacturer's instructions. Data plotting and analyses were performed with Microsoft Excel and Graphpad-Prizm software.
In general terms: In an ELISA, binding on a coated surface is turned into a signal by an enzyme label.
The EC50 is the concentration giving half of the maximal effect. With B1, the response was half-maximal at 0.177 nM (EC50).

In turn, B2 registered an EC50 of 0.219 nM.

Take B3: the EC50 was determined as 0.296 nM.

The molecule B4 yielded a concentration for a half-maximal effect (EC50) of 0.305 nM.

For B5, the response was half-maximal at 0.152 nM (EC50).

B6 came in with a concentration giving a half-maximal response (EC50) of 0.178 nM.

In turn, B10 came in with an EC50 of 0.213 nM.

The next experiment addresses T3, full-length mouse Notch1 expressed on …. Description: cell-based ELISA, U-2 OS cells expressing full-length mouse Notch1. As to the method: as §2
As for B1, the half-maximal effective concentration (EC50) amounted to 0.129 nM.

In turn, B2 displayed a half-maximal effective concentration (EC50) of 0.146 nM.

The molecule B3 returned an EC50 of 0.144 nM.

On to B4, for which the EC50 was 0.229 nM.

Turning to B5, the half-maximal effective concentration (EC50) is 0.0934 nM.

As for B6, the EC50 worked out at 0.137 nM.

For the molecule B10, the half-maximal effective concentration (EC50) was determined as 0.172 nM.

The target of a further experiment is T1, human Notch1 NRR_Avi_His recombinant …. Description: competition ELISA on coated human Notch1 NRR_Avi_His; competitor 0.8 nM biotinylated rat 438. As to the method: (§3) In a similar manner as described for recombinant protein or cell based ELISAs, 96 well cell culture plates were either coated with Notch1 NRR-Avi_His protein (hi-bound co-Star plates), or seeded with full length Notch1 expressing U-2 OS cells (cell culture plate, Co-star), respectively.
(§4) After incubation for 2 hours, the plates were washed, as described above, and HRP-conjugated streptavidin (Southern Biotech) diluted 1:5000 in blocking buffer was applied. Incubation with streptavidin was allowed for 30 min before the plates were washed again and developed with TMB solution for 10 minutes. Developing reaction was stopped by adding 0.18M H₂SO₄ and absorbance at 450 nm was measured. Data plotting and analyses were performed with Microsoft Excel and Graphpad-Prizm software.
Regarding B1, the concentration for a half-maximal effect (EC50) was 0.6 nM.

As for B2, the EC50 is 7 nM.

On to B3, for which the EC50 turned out to be 1.1 nM.

For B4, the EC50 is 0.7 nM.

For B5, the EC50 was 2.5 nM.

With B6, the EC50 was found to be 0.4 nM.

As for B7, the concentration giving a half-maximal response (EC50) is 2.1 nM.

As for B8, the concentration giving a half-maximal response (EC50) worked out at 2.1 nM.

Another experiment shares this target. Description: SPR (Biacore T100), antibody captured by anti-human IgG-Fc, NRR_Avi_His as analyte, 1:1 Langmuir model. As to the method: as §1
As usually defined, the Kd is the equilibrium constant for the complex coming apart. As a reminder, the koff is the rate constant with which the complex falls apart. As usually defined, the kon is the second-order rate constant of association. For the molecule B1, the equilibrium dissociation constant (Kd) was 9.65 nM and 9.6 nM; the off-rate (koff) turned out to be 0.000422 s⁻¹; the association rate constant (kon) came out at 43700 M⁻¹ s⁻¹.

On to B3, for which the Kd was 21.8 nM, the koff was 0.00103 s⁻¹ and the kon came out at 47400 M⁻¹ s⁻¹.

Consider B4, for which the Kd was 6.42 nM and 6.4 nM; the koff is 0.000389 s⁻¹; the kon was determined as 60500 M⁻¹ s⁻¹.

For the molecule B5, the Kd amounted to 1.83 nM, the off-rate (koff) came out at 0.000442 s⁻¹ and the kon came out at 242000 M⁻¹ s⁻¹.

For the molecule B8, the dissociation constant Kd was found to be 4.34 nM, the koff is 0.000229 s⁻¹ and the kon was found to be 52700 M⁻¹ s⁻¹.

Another experiment deals with T2, full-length human Notch1 expressed on …. Briefly: competition ELISA on U-2 OS cells expressing full-length human Notch1; competitor 0.8 nM biotinylated rat 438. As to the method: as §3, §4
Take B1: the EC50 worked out at 2.4 nM.

Regarding B2, the EC50 is 3.3 nM.

Take B3: the concentration giving a half-maximal response (EC50) was determined as 2.8 nM.

Consider B4, for which the EC50 stood at 4 nM.

The molecule B5 yielded a concentration giving a half-maximal response (EC50) of 2.8 nM.

B6 showed an EC50 of 2.2 nM.

For the molecule B7, the EC50 was 11.6 nM.

Regarding B8, the EC50 worked out at 4.4 nM.
